Test results: patent US6365126

Molecular target: H-Ras (UniProt P01112)
Sequence (P01112 whole entry, looked up): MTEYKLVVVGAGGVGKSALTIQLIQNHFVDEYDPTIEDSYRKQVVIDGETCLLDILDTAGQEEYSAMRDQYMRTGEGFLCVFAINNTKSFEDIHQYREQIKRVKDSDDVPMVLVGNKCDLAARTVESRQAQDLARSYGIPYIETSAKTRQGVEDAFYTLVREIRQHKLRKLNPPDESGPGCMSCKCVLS

## human NF1 catalytic domain fusion protein
  GTPase activity of H-Ras (GAP assay): All three fusion proteins stimulated the GTPase activity of H-Ras
